Results from paper PMC3760834.

Molecular target: GST-Cx46G143R loop fusion protein (intracellular loop domain of human Cx46 with the cataract mutation G143R) (human)
Assay: pull-down; GST, GST-Cx46 loop or GST-Cx46G143R loop on glutathione beads incubated with crude membrane proteins of HeLa cells expressing Cx46, rotating platform, 4°C overnight; eluted proteins blotted with anti-Cx46 and anti-GST

Substance: human connexin 46 (Cx46), wild type (from UniProt Q9Y6H8 1-435) (natural protein)
- fold of Cx46 pulled down against the wild-type GST-Cx46 loop: > 2 fold
